From the supplement of paper PMC7877785 come the findings set out here.

± gives the uncertainty stated by the source.

The nature of the series: self-splicing fitness, log relative to wild type (ln ratio); higher = more splicing; Tetrahymena group I intron in knt gene, E. coli kanamycin selection, DiMSum; sequences stand for … in CUCUCU…GGAGGGAAAAGUUAUCAGGCAUGCACCUGGUAGCUAGUCUUUAAACCAAUAGAUUGCAUCGGUUUAAAAGGCAAGACCGUCAAAUUGCGGGAAAGGGGUCAACAGCCGUUCAGUACCAAGUCUCAGGGGAAACUUUGAGAUGGCCUUGCAAAGGGUAUGGUAAUAAGCUGACGGACAUGGUCCUAACCACGCAGCCAAGUCCUAAGUCAACAGAUCUUCUGUUGAUAUGGAUGCAGUUCACAGACUAAAUGUCGGUCGGGGAAGAUGUAUUCUUCUCAUAAGAUAUAGUCGGACCUCUCCUUAAUGGGAGCUAGCGGAUGAAGUGAUGCAACACUGGAGCCGCUGGGAACUAAUUUGUAUGCGAAAGUAUAUUGAUUAGUUUUGGAGUACUCGUGGUCG
The essentials: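 Pooled colonies went to amplicon sequencing on an Illumina HiSeq 2500 after six replicate transformations. The plates were LB agar with 100 μg/mL carbenicillin, 50 μM IPTG and 0.2% rhamnose, with or without 25 μg/mL kanamycin, incubated overnight at 37°C or 30°C. The E. coli BL21(DE3) library had all eight P1ex-region intron nucleotides randomised, the intron placed in the knt kanamycin-resistance gene on pET-22b(+). DiMSum fitness is the error-weighted combination of replicate fold changes, kanamycin against none, normalised to wild type.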

Turning to UGGAAGCAAUAUUACGUCUC, for the setting “37 °C”, the “self-splicing fitness (ln)” value was -2.47 ± 0.32.

UCCAAGCAAUAUUACGUGGG: the “self-splicing fitness (ln)” value is -3.89 ± 0.23 (30 °C) and -2.71 ± 0.18 (37 °C).

As for AUUGAGCAAUAUUACGCUGU, the “self-splicing fitness (ln)” value (30 °C) is -1.97 ± 0.25.

Consider CGGAAGCAAUAUUACGAUCA, for which the “self-splicing fitness (ln)” value reads like this: (30 °C) -0.698 ± 0.11; (37 °C) -0.039 ± 0.1.

On to GUCUAGCAAUAUUACGCUGG, for which the “self-splicing fitness (ln)” value reads like this: (30 °C) -2.84 ± 0.36; (37 °C) -2.2 ± 0.27.

For CCCCAGCAAUAUUACGCGGA, the “self-splicing fitness (ln)” value is, setting by setting: (30 °C) -3.34 ± 0.15; (37 °C) -2.07 ± 0.12.

With AUACAGCAAUAUUACGAAUG, the “self-splicing fitness (ln)” value by setting is: (30 °C) -2.16 ± 0.14; (37 °C) -2.7 ± 0.19.

On to CGGCAGCAAUAUUACGUAAU, for which the “self-splicing fitness (ln)” value was -3.38 ± 0.18 (30 °C) and -1.69 ± 0.22 (37 °C).

For the sequence GAGGAGCAAUAUUACGACGG, the “self-splicing fitness (ln)” value by setting is: (30 °C) -3.25 ± 0.3; (37 °C) -2.07 ± 0.31.

For UUUUAGCAAUAUUACGCUUA, the “self-splicing fitness (ln)” value was -1.1 ± 0.16 (30 °C) and -0.69 ± 0.15 (37 °C).

As for GCCGAGCAAUAUUACGCAAC, the “self-splicing fitness (ln)” value is, setting by setting: (30 °C) -3.15 ± 0.29; (37 °C) -2.07 ± 0.26.

Take UUUUAGCAAUAUUACGGGGA: the “self-splicing fitness (ln)” value (30 °C) is -1.56 ± 0.16 and the “self-splicing fitness (ln)” value (37 °C) was -0.366 ± 0.14.

GCCGAGCAAUAUUACGUAAU: the “self-splicing fitness (ln)” value is, setting by setting: (30 °C) -1.28 ± 0.092; (37 °C) -0.203 ± 0.099.

As for GCUCAGCAAUAUUACGUCUC, the “self-splicing fitness (ln)” value is -0.67 ± 0.12 (30 °C) and -0.754 ± 0.1 (37 °C).

AGGGAGCAAUAUUACGCGAG: the “self-splicing fitness (ln)” value was -3.35 ± 0.19 (30 °C) and -2.47 ± 0.19 (37 °C).

Take GAAAAGCAAUAUUACGGUGA: the “self-splicing fitness (ln)” value (30 °C) was -1.48 ± 0.07 and the “self-splicing fitness (ln)” value (37 °C) was -1.07 ± 0.075.

Consider AACGAGCAAUAUUACGAUCG, for which the “self-splicing fitness (ln)” value reads like this: (30 °C) -1.19 ± 0.14; (37 °C) -1.06 ± 0.16.

For GUUAAGCAAUAUUACGAUCC, the “self-splicing fitness (ln)” value is -1.62 ± 0.13 (30 °C) and 0.0862 ± 0.16 (37 °C).

With GAUAAGCAAUAUUACGCGAG, the “self-splicing fitness (ln)” value runs as follows: (30 °C) -1.04 ± 0.073; (37 °C) -0.376 ± 0.079.

Turning to GUAGAGCAAUAUUACGGAUU, the “self-splicing fitness (ln)” value by setting is: (30 °C) -2.61 ± 0.24; (37 °C) -0.513 ± 0.2.

Take UGGUAGCAAUAUUACGUACC: the “self-splicing fitness (ln)” value (30 °C) is -2.93 ± 0.42 and the “self-splicing fitness (ln)” value (37 °C) was -2.31 ± 0.49.

Regarding ACGUAGCAAUAUUACGGACG, the “self-splicing fitness (ln)” value is, setting by setting: (30 °C) -1.88 ± 0.17; (37 °C) -0.579 ± 0.13.

Regarding AGUCAGCAAUAUUACGCUGU, the “self-splicing fitness (ln)” value is -4.12 ± 0.34 (30 °C) and -2.73 ± 0.22 (37 °C).

As to CUUAAGCAAUAUUACGCGAA, the “self-splicing fitness (ln)” value is -2.82 ± 0.24 (30 °C) and -2.82 ± 0.34 (37 °C).

In the case of CGCCAGCAAUAUUACGCUAG, the “self-splicing fitness (ln)” value (30 °C) was -2.94 ± 0.16 and the “self-splicing fitness (ln)” value (37 °C) was -2.4 ± 0.23.

For the sequence AUCCAGCAAUAUUACGCACU, the “self-splicing fitness (ln)” value is -0.149 ± 0.11 (30 °C) and 0.144 ± 0.11 (37 °C).

As for AUGUAGCAAUAUUACGCUCG, the “self-splicing fitness (ln)” value by setting is: (30 °C) -0.227 ± 0.078; (37 °C) 0.00954 ± 0.13.

With CUGCAGCAAUAUUACGUAGA, the “self-splicing fitness (ln)” value by setting is: (30 °C) -3.08 ± 0.15; (37 °C) -3.35 ± 0.3.

Regarding UCUUAGCAAUAUUACGGCCG, the “self-splicing fitness (ln)” value reads like this: (30 °C) -2.11 ± 0.37; (37 °C) -0.349 ± 0.33.

On to UGACAGCAAUAUUACGGUUG, for which the “self-splicing fitness (ln)” value (30 °C) is -2.49 ± 0.13 and the “self-splicing fitness (ln)” value (37 °C) is -1.56 ± 0.15.

In the case of GGGAAGCAAUAUUACGACAG, the “self-splicing fitness (ln)” value by setting is: (30 °C) -3.01 ± 0.31; (37 °C) -3 ± 0.37.

With ACGAAGCAAUAUUACGGAUA, the “self-splicing fitness (ln)” value is, setting by setting: (30 °C) -3.55 ± 0.32; (37 °C) -2.43 ± 0.23.

Regarding UUUGAGCAAUAUUACGUCUU, the “self-splicing fitness (ln)” value reads like this: (30 °C) -3.77 ± 0.32; (37 °C) -3.16 ± 0.43.

With CCUGAGCAAUAUUACGUAAU, the “self-splicing fitness (ln)” value was -2.24 ± 0.2 (30 °C) and -2.6 ± 0.25 (37 °C).

Turning to UGGUAGCAAUAUUACGCGAG, the “self-splicing fitness (ln)” value is, setting by setting: (30 °C) -1.29 ± 0.17; (37 °C) -2.17 ± 0.24.

With CUAUAGCAAUAUUACGUUCA, the “self-splicing fitness (ln)” value runs as follows: (30 °C) -2.87 ± 0.24; (37 °C) -2.93 ± 0.35.

UAGCAGCAAUAUUACGCGUA: the “self-splicing fitness (ln)” value is, setting by setting: (30 °C) -1.2 ± 0.1; (37 °C) 0.478 ± 0.1.

In the case of ACAUAGCAAUAUUACGAUCU, the “self-splicing fitness (ln)” value runs as follows: (30 °C) 0.0431 ± 0.089; (37 °C) -0.196 ± 0.1.

On to AAGCAGCAAUAUUACGUCGU, for which the “self-splicing fitness (ln)” value runs as follows: (30 °C) -2.51 ± 0.095; (37 °C) -0.636 ± 0.12.

For the sequence GCUAAGCAAUAUUACGCGAA, the “self-splicing fitness (ln)” value reads like this: (30 °C) -2.87 ± 0.13; (37 °C) -1.1 ± 0.14.

For ACUUAGCAAUAUUACGUCUU, the “self-splicing fitness (ln)” value is -0.647 ± 0.084 (30 °C) and -4.56e-06 ± 0.099 (37 °C).

On to AAAGAGCAAUAUUACGGGCA, for which the “self-splicing fitness (ln)” value runs as follows: (30 °C) -2.45 ± 0.2; (37 °C) -1.42 ± 0.24.

With CACAAGCAAUAUUACGUACA, the “self-splicing fitness (ln)” value reads like this: (30 °C) -3.03 ± 0.1; (37 °C) -1.46 ± 0.1.

As for UGCUAGCAAUAUUACGUGCC, the “self-splicing fitness (ln)” value (37 °C) was -0.724 ± 0.3.

On to GCGGAGCAAUAUUACGUAAA, for which the “self-splicing fitness (ln)” value runs as follows: (30 °C) -3.53 ± 0.31; (37 °C) -1.97 ± 0.35.

In the case of CUCGAGCAAUAUUACGCCUU, the “self-splicing fitness (ln)” value (30 °C) was -2.45 ± 0.15 and the “self-splicing fitness (ln)” value (37 °C) is -2.72 ± 0.37.

For the sequence UUCCAGCAAUAUUACGUGUC, the “self-splicing fitness (ln)” value (30 °C) was -2.18 ± 0.086 and the “self-splicing fitness (ln)” value (37 °C) was -1.48 ± 0.098.

Regarding AGUCAGCAAUAUUACGGCCC, the “self-splicing fitness (ln)” value is, setting by setting: (30 °C) -0.436 ± 0.12; (37 °C) -0.0813 ± 0.18.

Take CACGAGCAAUAUUACGAAGU: the “self-splicing fitness (ln)” value is -1.68 ± 0.13 (30 °C) and -2.23 ± 0.19 (37 °C).

For the sequence UACUAGCAAUAUUACGUACU, the “self-splicing fitness (ln)” value by setting is: (30 °C) -2.51 ± 0.19; (37 °C) -0.347 ± 0.13.

As for AACUAGCAAUAUUACGAGGG, the “self-splicing fitness (ln)” value (30 °C) was -2.13 ± 0.12 and the “self-splicing fitness (ln)” value (37 °C) is -2.24 ± 0.19.

Turning to CUAGAGCAAUAUUACGGCCG, the “self-splicing fitness (ln)” value was -0.252 ± 0.15 (30 °C) and 0.456 ± 0.27 (37 °C).

As to UUGUAGCAAUAUUACGUACA, the “self-splicing fitness (ln)” value by setting is: (30 °C) -1.51 ± 0.2; (37 °C) -0.822 ± 0.17.

UGGAAGCAAUAUUACGAAAU: the “self-splicing fitness (ln)” value was -3.52 ± 0.29 (30 °C) and -2.27 ± 0.22 (37 °C).

For AAAGAGCAAUAUUACGUCAC, the “self-splicing fitness (ln)” value was -2.56 ± 0.5 (30 °C) and -2.76 ± 0.31 (37 °C).

AAUCAGCAAUAUUACGCGUA: the “self-splicing fitness (ln)” value is, setting by setting: (30 °C) -0.281 ± 0.068; (37 °C) 0.0946 ± 0.082.

Regarding GUCUAGCAAUAUUACGCUCC, the “self-splicing fitness (ln)” value is, setting by setting: (30 °C) -1.44 ± 0.18; (37 °C) 0.66 ± 0.2.

GGCGAGCAAUAUUACGCCGA: the “self-splicing fitness (ln)” value reads like this: (30 °C) -2.65 ± 0.18; (37 °C) -1.45 ± 0.091.

As to UAGUAGCAAUAUUACGAGUU, the “self-splicing fitness (ln)” value (30 °C) was -3.96 ± 0.28 and the “self-splicing fitness (ln)” value (37 °C) was -2.75 ± 0.23.

In the case of CAAUAGCAAUAUUACGGGCA, the “self-splicing fitness (ln)” value runs as follows: (30 °C) -2.46 ± 0.28; (37 °C) -2.89 ± 0.25.
